Test results reported in the supplement of paper PMC5998384.

Columns and labels:
HeLa Kyoto [1] = experiment: thermal stability score vs G1/S (z-score of summed log2 fold changes over temperatures); higher = more thermally stable than in G1/S
HeLa Kyoto [2] = experiment: solubility in G1/S (NP-40 vs SDS abundance) (log2 ratio); higher = more soluble; settings: cell cycle stage: G1/S
HeLa Kyoto [3] = experiment: solubility change mitosis vs G1/S (difference of NP-40 vs SDS log2 ratios) (log2 ratio difference); higher = more soluble in mitosis
HeLa Kyoto [4] = experiment: melting temperature (median over replicates), in situ; higher = more thermally stable
[5] = cell cycle stage: early G1 (4.5 h after nocodazole release)
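Throughout, for melting temperature (median over replicates), in situ: HeLa Kyoto cells synchronized by double thymidine or nocodazole block, proteins quantified by TMT10plex mass spectrometry, three independent biological replicates.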
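Throughout, for solubility change mitosis vs G1/S (difference of NP-40 vs SDS log2 ratios): synchronized HeLa Kyoto cells (double thymidine block for G1/S, nocodazole release for mitosis), protein amounts in NP-40 versus SDS lysates quantified by mass spectrometry, three biological replicates.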
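Throughout, for solubility in G1/S (NP-40 vs SDS abundance): HeLa Kyoto cells arrested at G1/S by double thymidine block, proteins quantified by TMT10plex mass spectrometry in mild NP-40 versus SDS extracts, three biological replicates.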
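Throughout, for thermal stability score vs G1/S (z-score of summed log2 fold changes over temperatures): synchronized HeLa Kyoto cells, proteins quantified by TMT10plex mass spectrometry, three biological replicates, mitosis taken 0.5 h after nocodazole release, G1/S directly after double thymidine block.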

MSYDYHQNWGRDGGPRSSGGGYGGGPAGGHGGNRGSGGGGGGGGGGRGGRGRHPGHLKGREIGMWYAKKQGQKNKEAERQERAVVHMDERREEQIVQLLNSVQAKNDKESEAQISWFAPEDHGYGTEVSTKNTPCSENKLDIQEKKLINQEKKMFRIRNRSYIDRDSEYLLQENEPDGTLDQKLLEDLQKKKNDLRYIEMQHFREKLPSYGMQKELVNLIDNHQVTVISGETGCGKTTQVTQFILDNYIERGKGSACRIVCTQPRRISAISVAERVAAERAESCGSGNSTGYQIRLQSRLPRKQGSILYCTTGIILQWLQSDPYLSSVSHIVLDEIHERNLQSDVLMTVVKDLLNFRSDLKVILMSATLNAEKFSEYFGNCPMIHIPGFTFPVVEYLLEDVIEKIRYVPEQKEHRSQFKRGFMQGHVNRQEKEEKEAIYKERWPDYVRELRRRYSASTVDVIEMMEDDKVDLNLIVALIRYIVLEEEDGAILVFLPGWDNISTLHDLLMSQVMFKSDKFLIIPLHSLMPTVNQTQVFKRTPPGVRKIVIATNIAETSITIDDVVYVIDGGKIKETHFDTQNNISTMSAEWVSKANAKQRKGRAGRVQPGHCYHLYNGLRASLLDDYQLPEILRTPLEELCLQIKILRLGGIAYFLSRLMDPPSNEAVLLSIRHLMELNALDKQEELTPLGVHLARLPVEPHIGKMILFGALFCCLDPVLTIAASLSFKDPFVIPLGKEKIADARRKELAKDTRSDHLTVVNAFEGWEEARRRGFRYEKDYCWEYFLSSNTLQMLHNMKGQFAEHLLGAGFVSSRNPKDPESNINSDNEKIIKAVICAGLYPKVAKIRLNLGKKRKMVKVYTKTDGLVAVHPKSVNVEQTDFHYNWLIYHLKMRTSSIYLYDCTEVSPYCLLFFGGDISIQKDNDQETIAVDEWIVFQSPARIAHLVKELRKELDILLQEKIESPHPVDWNDTKSRDCAVLSAIIDLIKTQEKATPRNFPPRFQDGYYS [DHX36]
thermal stability score (HeLa Kyoto [1]; [5]): 0.36
thermal stability score (HeLa Kyoto [1]; cell cycle stage: mitosis): 0.349
solubility in G1/S (log2) (HeLa Kyoto [2]): -0.25
solubility change mitosis (log2) (HeLa Kyoto [3]): -0.0322
melting temperature (HeLa Kyoto [4]; cell cycle stage: G1/S): 50.8 °C
melting temperature (HeLa Kyoto [4]; cell cycle stage: mitosis): 51.5 °C

MAAGGGGSCDPLAPAGVPCAFSPHSQAYFALASTDGHLRVWETANNRLHQEYVPSAHLSGTCTCLAWAPARLQAKESPQRKKRKSEAVGMSNQTDLLALGTAVGSILLYSTVKGELHSKLISGGHDNRVNCIQWHQDSGCLYSCSDDKHIVEWNVQTCKVKCKWKGDNSSVSSLCISPDGKMLLSAGRTIKLWVLETKEVYRHFTGHATPVSSLMFTTIRPPNESQPFDGITGLYFLSGAVHDRLLNVWQVRSENKEKSAVMSFTVTDEPVYIDLTLSENKEEPVKLAVVCRDGQVHLFEHILNGYCKKPLTSNCTIQIATPGKGKKSTPKPIPILAAGFCSDKMSLLLVYGSWFQPTIERVALNSREPHMCLVRDISNCWAPKVETAITKVRTPVMNSEAKVLVPGIPGHHAAIKPAPPQTEQVESKRKSGGNEVSIEERLGAMDIDTHKKGKEDLQTNSFPVLLTQGLESNDFEMLNKVLQTRNVNLIKKTVLRMPLHTIIPLLQELTKRLQGHPNSAVLMVQWLKCVLTVHASYLSTLPDLVPQLGTLYQLMESRVKTFQKLSHLHGKLILLITQVTASEKTKGATSPGQKAKLVYEEESSEEESDDEIADKDSEDNWDEDEEESESEKDEDVEEEDEDAEGKDEENGEDRDTASEKELNGDSDLDPENESEEE [WDR43]
thermal stability score (HeLa Kyoto [1]; [5]): -1.7
thermal stability score (HeLa Kyoto [1]; cell cycle stage: mitosis): -6.5
solubility in G1/S (log2) (HeLa Kyoto [2]): -1.29
solubility change mitosis (log2) (HeLa Kyoto [3]): 0.783
melting temperature (HeLa Kyoto [4]; cell cycle stage: G1/S): 58.6 °C
melting temperature (HeLa Kyoto [4]; cell cycle stage: mitosis): 55.7 °C

MADPAAPTPAAPAPAQAPAPAPEAVPAPAAAPVPAPAPASDSASGPSSDSGPEAGSQRLLFSHDLVSGRYRGSVHFGLVRLIHGEDSDSEGEEEGRGSSGCSEAGGAGHEEGRASPLRRGYVRVQWYPEGVKQHVKETKLKLEDRSVVPRDVVRHMRSTDSQCGTVIDVNIDCAVKLIGTNCIIYPVNSKDLQHIWPFMYGDYIAYDCWLGKVYDLKNQIILKLSNGARCSMNTEDGAKLYDVCPHVSDSGLFFDDSYGFYPGQVLIGPAKIFSSVQWLSGVKPVLSTKSKFRVVVEEVQVVELKVTWITKSFCPGGTDSVSPPPSVITQENLGRVKRLGCFDHAQRQLGERCLYVFPAKVEPAKIAWECPEKNCAQGEGSMAKKVKRLLKKQVVRIMSCSPDTQCSRDHSMEDPDKKGESKTKSEAESASPEETPDGSASPVEMQDEGAEEPHEAGEQLPPFLLKEGRDDRLHSAEQDADDEAADDTDDTSSVTSSASSTTSSQSGSGTSRKKSIPLSIKNLKRKHKRKKNKITRDFKPGDRVAVEVVTTMTSADVMWQDGSVECNIRSNDLFPVHHLDNNEFCPGDFVVDKRVQSCPDPAVYGVVQSGDHIGRTCMVKWFKLRPSGDDVELIGEEEDVSVYDIADHPDFRFRTTDIVIRIGNTEDGAPHKEDEPSVGQVARVDVSSKVEVVWADNSKTIILPQHLYNIESEIEESDYDSVEGSTSGASSDEWEDDSDSWETDNGLVEDEHPKIEEPPIPPLEQPVAPEDKGVVISEEAATAAVQGAVAMAAPMAGLMEKAGKDGPPKSFRELKEAIKILESLKNMTVEQLLTGSPTSPTVEPEKPTREKKFLDDIKKLQENLKKTLDNVAIVEEEKMEAVPDVERKEDKPEGQSPVKAEWPSETPVLCQQCGGKPGVTFTSAKGEVFSVLEFAPSNHSFKKIEFQPPEAKKFFSTVRKEMALLATSLPEGIMVKTFEDRMDLFSALIKGPTRTPYEDGLYLFDIQLPNIYPAVPPHFCYLSQCSGRLNPNLYDNGKVCVSLLGTWIGKGTERWTSKSSLLQVLISIQGLILVNEPYYNEAGFDSDRGLQEGYENSRCYNEMALIRVVQSMTQLVRRPPEVFEQEIRQHFSTGGWRLVNRIESWLETHALLEKAQALPNGVPKASSSPEPPAVAELSDSGQQEPEDGGPAPGEASQGSDSEGGAQGLASASRDHTDQTSETAPDASVPPSVKPKKRRKSYRSFLPEKSGYPDIGFPLFPLSKGFIKSIRGVLTQFRAALLEAGMPECTEDK [UBE2O]
thermal stability score (HeLa Kyoto [1]; [5]): -1.41
thermal stability score (HeLa Kyoto [1]; cell cycle stage: mitosis): -1.46
solubility in G1/S (log2) (HeLa Kyoto [2]): -0.0555
solubility change mitosis (log2) (HeLa Kyoto [3]): -0.0785
melting temperature (HeLa Kyoto [4]; cell cycle stage: G1/S): 51.7 °C
melting temperature (HeLa Kyoto [4]; cell cycle stage: mitosis): 51.1 °C
